Among the data in article PMC9780748 are pKa values, retold here.

What all share (assay): potentiometry
Series [1] addresses Lys79 (UniProt position 79, …). The settings on record: 298 K, 0.1 M NaClO4, none (HClO4/KOH).
Series [2] deals with Arg76 (UniProt position 76, …). The following applies: 298 K, 0.1 M NaClO4, none (HClO4/KOH).
Series [3] has as its target Arg187 (UniProt position 187, …). The following applies: 298 K; 0.04 M sodium dodecyl sulfate (no other salt stated); none (HClO4/KOH); free peptide (0.5 mM) in SDS, no metal.
Series [4] addresses Tyr189 (UniProt position 189, …). The following applies: 298 K, 0.04 M sodium dodecyl sulfate (no other salt stated), none (HClO4/KOH).
Series [5] deals with Cterm310 (UniProt position 310, GQLHCT-----). The following applies: 298 K; 0.1 M NaClO4; none (HClO4/KOH); free peptide (0.5 mM), no metal.
Series [6] concerns the target Glu303 (UniProt position 303, …). The settings on record: 298 K; 0.1 M NaClO4; none (HClO4/KOH); free peptide (0.5 mM), no metal.
[7] abbreviates: Ni(II) complex, metal:peptide 1:1, 0.5 mM peptide.
[8] abbreviates: Zn(II) complex, metal:peptide 1:1, 0.5 mM peptide.
The mark [9] stands for this setting: free peptide (0.5 mM), no metal.
Where [10] appears, read: free peptide (0.5 mM) in SDS, no metal.

With ARHAKAH [Aspf2 (Asp f 2 zincophore) fragment 75-81, Ac-ARHAKAH-NH2 (Aspergillus fumigatus)], the pKa (usually the negative logarithm of the acid dissociation constant) in series [1] (setting [7]) was found to be 9.87; in series [1] (setting [8]) it was 9.75; in series [1] (setting [9]) it was 9.79; in series [2] (setting [7]) it was 11.38; in series [2] (setting [8]) it was 11.79; in series [2] (setting [9]) it was 11.14.
On to MHRLYHVPAVGQGWVDHFAD [Aspf2 (Asp f 2 zincophore) fragment 185-204, Ac-MHRLYHVPAVGQGWVDHFAD-NH2 (Aspergillus fumigatus)], for which the pKa in series [3] was found to be 11.24; in series [4] (Zn(II) complex, metal:peptide 1:1, 0.5 mM peptide, in SDS), 9.56; in series [4] (setting [10]) it was 10.12.
Turning to MHRLYHVP [Aspf2 (Asp f 2 zincophore) fragment 185-192, Ac-MHRLYHVP-NH2 (Aspergillus fumigatus)], the values for the pKa in series [3] and in series [4] (setting [10]) were 11.21 and 9.56, respectively.
Consider PNCHTHEGGQLHCT [Aspf2 (Asp f 2 zincophore) C-terminal fragment 297-310, Ac-PNCHTHEGGQLHCT (Aspergillus fumigatus)], for which the pKa in series [5] is recorded as 3.08; in series [6], 4.24.
